Consider 4 molecules from article PMC5339802 (2017).

In experiment [1] the target is T1, FITC-labeled MyoVa-GTD (human, UniProt Q9Y4I1 1448-1855, fluorescein isothiocyanate (FITC) label, site not stated).
T1 chain: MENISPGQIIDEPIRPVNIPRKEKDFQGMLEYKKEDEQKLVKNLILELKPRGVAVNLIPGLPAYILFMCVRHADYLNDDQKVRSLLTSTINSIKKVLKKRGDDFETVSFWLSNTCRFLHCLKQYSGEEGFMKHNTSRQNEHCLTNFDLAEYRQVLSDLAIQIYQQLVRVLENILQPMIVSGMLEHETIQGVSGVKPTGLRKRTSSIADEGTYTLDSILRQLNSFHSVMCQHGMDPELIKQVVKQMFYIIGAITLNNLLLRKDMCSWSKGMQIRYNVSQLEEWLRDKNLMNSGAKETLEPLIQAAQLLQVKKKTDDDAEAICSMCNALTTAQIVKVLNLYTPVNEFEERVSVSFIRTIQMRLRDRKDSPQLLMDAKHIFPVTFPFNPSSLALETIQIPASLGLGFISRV
Put plainly: MST; 300 nM FITC-labeled MyoVa-GTD, serial dilution of RPGRIP1L-C2 domains; 50 mM HEPES, 150 mM NaCl, 5% glycerol, 0.05% tween-20, pH 7.2; Monolith NT.115, LED power 20%, MST power 60%; triplicate.

For experiment [2], the target named is T1, FITC-labeled MyoVa-GTD. Nature of the experiment: MST.

As usually defined, the Kd is the concentration at which binding is half-saturated. A low value points to a tighter complex.

RPGRIP1L-C2 domains gave a Kd with FITC-labeled MyoVa-GTD [1] of 3 to 9 µM.

B1: RPGRIP1L-C2_(NTERM) domain, purified, GST removed (domain or fragment)
chain: RIHKLEAQLKDIAYGTKQYKFKPEIMPDDSVDEFDETIHLERGENLFEIHINKVTFSSEVLQASGDKEPVTFCTYAFYDFELQTTPVVRGLHPEYNFTSQYLVHVNDLFLQYIQKNTITLEVHQAYSTEYETIAACQLKFHEILEKSGRIFCTASLIGTKGDIPNFGTVEYWFRLRV
In the experiment with FITC-labeled MyoVa-GTD [2], B1 gave a Kd of 2.8 µM.

B2: RPGRIP1L-C2_(CTERM) domain, purified, GST removed (domain or fragment)
chain: MQQGKDDVSLLSEGQLAEQSLASSEDETEITEDLEPEVEEDMSASDSDDCIIPGPISKNIKQPSEKIRIEIIALSLNDSQVTMDDTIQRLFVECRFYSLPAEETPVSLPKPKSGQWVYYNYSNVIYVDKENNKAKRDILKAILQKQEMPNRSLRFTVVSDPPEDEQDLECEDIGVAHVDLADMFQEGRDLIEQNIDVFDARADGEGIGKLRVTVEALHALQSVYKQYRDDLEA
In the experiment with FITC-labeled MyoVa-GTD [2], B2 came in with a Kd of 3.8 µM. This Kd and that of the molecule before are within 1.5-fold of each other.

B3: RPGRIP1L-C2MED domain, purified, GST removed (domain or fragment)
chain: STDSTDGNLNELHITIRCCNHLQSRASHLQPHPYVVYKFFDFADHDTAIIPSSNDPQFDDHMYFPVPMNMDLDRYLKSESLSFYVFDDSDTQENIYIGKVNVPLISLAHDRCISGIFELTDHQKHPAGTIHVILKWKFAYLPPSGSITTE
The molecule B3 yielded a dissociation constant Kd in the experiment with FITC-labeled MyoVa-GTD [2] of 8.9 µM.
